Results: US20240279341A1 (Alector, published 2024)

T1: human MerTK on M2c-differentiated human macrophages (human, UniProt Q12866 21-999)
T1 construct: Endogenous MerTK of primary human macrophages; also called M2c-huMacrophages
T1 sequence: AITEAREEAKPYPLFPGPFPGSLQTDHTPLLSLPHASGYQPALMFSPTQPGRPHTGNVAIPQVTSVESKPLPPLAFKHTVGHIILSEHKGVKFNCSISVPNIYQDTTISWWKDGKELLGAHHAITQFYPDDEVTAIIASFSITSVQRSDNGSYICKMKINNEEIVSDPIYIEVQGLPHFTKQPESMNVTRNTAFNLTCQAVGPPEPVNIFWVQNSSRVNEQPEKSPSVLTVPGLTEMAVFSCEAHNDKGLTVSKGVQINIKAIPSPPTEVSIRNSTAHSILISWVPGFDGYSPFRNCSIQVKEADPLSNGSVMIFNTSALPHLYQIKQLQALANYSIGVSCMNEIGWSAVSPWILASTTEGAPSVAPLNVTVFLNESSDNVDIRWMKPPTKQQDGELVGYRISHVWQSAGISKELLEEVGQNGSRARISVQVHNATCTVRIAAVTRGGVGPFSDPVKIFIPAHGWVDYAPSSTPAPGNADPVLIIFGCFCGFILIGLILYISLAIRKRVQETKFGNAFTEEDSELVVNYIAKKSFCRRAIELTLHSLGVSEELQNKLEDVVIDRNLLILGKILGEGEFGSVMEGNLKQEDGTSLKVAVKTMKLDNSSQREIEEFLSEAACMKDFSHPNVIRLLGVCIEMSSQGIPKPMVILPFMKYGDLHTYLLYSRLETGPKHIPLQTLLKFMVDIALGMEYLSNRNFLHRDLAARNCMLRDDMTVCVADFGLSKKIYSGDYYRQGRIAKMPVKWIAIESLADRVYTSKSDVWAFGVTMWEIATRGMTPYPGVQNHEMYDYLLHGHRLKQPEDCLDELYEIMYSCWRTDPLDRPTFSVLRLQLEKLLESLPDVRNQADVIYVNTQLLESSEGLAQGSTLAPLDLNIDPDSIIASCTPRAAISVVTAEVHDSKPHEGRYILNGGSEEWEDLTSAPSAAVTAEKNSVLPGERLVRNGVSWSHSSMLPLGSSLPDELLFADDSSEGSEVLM

T2: recombinant murine MerTK extracellular domain (mouse, UniProt Q60805 19-497)
T2 construct: also called moMerTK; mouse MerTK; not shown: PolyHis tag or TEVS/Thrombin/murine IgG2a Fc tag (a commercial human IgG1 Fc fusion is also mentioned); which form was t
T2 sequence: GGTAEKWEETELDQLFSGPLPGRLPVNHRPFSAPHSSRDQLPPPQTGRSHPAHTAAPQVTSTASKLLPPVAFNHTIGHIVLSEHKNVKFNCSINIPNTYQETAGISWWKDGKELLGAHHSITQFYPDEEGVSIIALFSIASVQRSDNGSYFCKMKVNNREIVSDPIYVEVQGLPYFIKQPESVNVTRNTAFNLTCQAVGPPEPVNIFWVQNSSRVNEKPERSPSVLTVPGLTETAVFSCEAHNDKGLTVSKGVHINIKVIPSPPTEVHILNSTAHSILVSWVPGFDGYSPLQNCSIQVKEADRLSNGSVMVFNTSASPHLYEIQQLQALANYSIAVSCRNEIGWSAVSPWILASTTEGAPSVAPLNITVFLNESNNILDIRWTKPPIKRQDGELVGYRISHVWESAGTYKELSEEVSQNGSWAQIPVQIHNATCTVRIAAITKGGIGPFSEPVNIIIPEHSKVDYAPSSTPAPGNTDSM

T3: human MerTK overexpressed on CHO cells (human, UniProt Q12866 21-999)
T3 construct: also called CHO-huMerTK OE; CHO-human MerTK OE cells
T3 sequence: T1 sequence

B1: monovalent anti-MerTK antibody MTK-16.2 (antibody, V domains shown)
VH: QVQLVQSGSELKKPGASVKVSCKASGYTFTNHGMNWVRQAPGQGLEWMGWINTYTGEPTYADDFKGRFVFSLDTSVSTAYLQISSLKAEDTAVYYCARKGVTAARYFDYWGQGTLVTVSS
VL: DIQMTQSPSSLSASVGDRVTITCRASQNVRTAVAWYQQKPGKAPKRLIYLASNRHTGVPSRFSGSGSGTEFTLTISNLQPEDFATYYCLQHWNYPLTFGGGTKLEIK
B2: bivalent anti-MerTK antibody MTK-16.2 (full IgG) (antibody, V domains shown)
VH: B1 VH
VL: DIQMTQSPSSLSASVGDRVTITCRASQNVRTAVAWYQQKPGKAPKRLIYLASNRHTGVPSRFSGSGSGTEFTLTISNLQPEDFATYYCLQHWNYPLTFGGGTKLEIKR
B3: monovalent anti-MerTK antibody MTK-33.11 (antibody, V domains shown)
VH: QVQLVQSGAEVKKPGASVKVSCKASGYTFTSYWMHWVRQAPGQGLEWIGVIDPSDNYINYNQKFQGRVTMTRDTSTSTVYMELSSLRSEDTAVYYCAREAWTRGYFDYWGQGTLVTVSS
VL: DIQMTQSPSSLSASVGDRVTITCQASRSVRNTVAWYQQKPGKAPKLLIYYASNRYTGVPSRFSGSGSGTDFTFTISSLQPEDIATYYCQQDYRSPFTFGQGTKLEIK
B4: bivalent anti-MerTK antibody MTK-33.11 (full IgG) (antibody, V domains shown)
VH: B3 VH
VL: DIQMTQSPSSLSASVGDRVTITCQASRSVRNTVAWYQQKPGKAPKLLIYYASNRYTGVPSRFSGSGSGTDFTFTISSLQPEDIATYYCQQDYRSPFTFGQGTKLEIKR
B5: bispecific anti-MerTK MTK-33.11:anti-PDL1 antibody (bispecific antibody, V domains shown)
VH 1: B3 VH
VL 1: B3 VL
VH 2: not shown
VL 2: not shown
B6: bispecific anti-MerTK MTK-16.2:anti-PDL1 antibody (bispecific antibody, V domains shown)
VH 1: B1 VH
VL 1: B1 VL
VH 2: not shown
VL 2: not shown

The binders below were run against T1, human MerTK on M2c-differentiated human … (assay: flow cytometry on M2c-differentiated human macrophages, Dylight650-conjugated antibody; average FACS Kd from Prism fit of MFI).
Text: (§1) Human macrophages were differentiated from human monocytes for 7 days in the presence of human M-CSF, resulting in M2c-differentiated human macrophages. After 7 days, the differentiated human macrophages were harvested (by scraping), resuspended in PBS, and plated on 96-well plates for use. CHO cells overexpressing human MerTK (CHO-huMerTK OE), CHO cells overexpressing human PDL1 (CHO-huPDL1 OE), and M2c-differentiated human macrophages were stained with Dylight650-conjugated bispecific anti-MerTK:anti-PDL1 antibodies, or bivalent anti-MerTK antibodies for 30 min on ice. A range of antibody concentrations were used in these studies to obtain binding curves. All antibodies tested in these studies were IgG1 having Fc regions comprising LALAPS mutations. Cells were fixed and then acquired on a BD FACS Canto II cytometer. The mean fluorescence intensity (MFI) was calculated using FlowJo software and Kd value was calculated using Prism software.

Binder | Kd [nM]
B1 | 77.8
B2 | 51.9
B3 | 9.96
B4 | 2

These binders were tested against T1, human MerTK on M2c-differentiated human … (assay: cell-based or functional assay).

Binder | Average Efferocytosis blocking IC50 [nM]
B1 | 37.9
B2 | 0.436
B3 | 4.45
B5 | 4.42
B4 | 0.341

Each binder was assayed against T2, recombinant murine MerTK extracellular … (assay: SPR (Carterra LSA), antibody immobilized, MerTK ECD as analyte).
Method: (§2) Binding kinetics of bispecific anti-MerTK:anti-PDL1 antibodies of the present disclosure to human, cyno, and murine MerTK were evaluated using a Carterra LSA instrument. […] A HC30 sensor chip (Carterra) was activated using the single channel flow cell with a 7-minute injection of a 1:1:1 mixture of 100 mM MES pH 5.5, 100 mM sulfo-NHS, 400 mM EDC (all reconstituted in MES pH 5.5; 100 μl of each mixed in vial immediately before running assay). After switching to the multi-channel array flow cell, the antibodies were injected over the activated chip in a 96-spot array for 15 minutes. A duplicate injection of the antibodies on a second block of the chip was spotted as before. The remaining unconjugated active groups on the chip were then blocked by injecting 1M Ethanolamine pH 8.5 (Carterra) for 7 minutes using the single channel flow cell.
(§3) After priming with running buffer (HBS-TE, Carterra) with 0.5 mg/ml BSA (Sigma), the immobilized anti-MerTK antibodies were tested for their ability to bind to several forms of recombinant MerTK extracellular domain, including that of human, cynomolgus, and mouse orthologs as described above. Estimates of affinity were generated by injecting each analyte over the entire antibody array using the single channel flow cell. […] Dissociation was followed for 300 seconds before regenerating after each injection with 2×30 seconds of 10 mM Glycine pH2.5. Three buffer blanks were run between each series (one species per series). After all concentrations of all three species of MerTK were injected, a duplicate set of injections was performed, so that each concentration for all three species was injected in widely spaced duplicates. Data were processed and analyzed using NextGenKIT high-throughput kinetics analysis software (Carterra).

Binder | binding result
B1 | no binding
B6 | no binding
B2 | no binding

Each binder was assayed against T2, recombinant murine MerTK extracellular … (assay: SPR (Carterra LSA), antibody immobilized, MerTK ECD as analyte; estimate, fits not ideal for a 1:1 model).
Method: as §2, §3

Binder | Kd [nM]
B3 | 40
B5 | 40
B4 | 50

These binders were tested against T3, human MerTK overexpressed on CHO cells (assay: flow cytometry on CHO-huMerTK OE cells, Dylight650-conjugated antibody; average FACS Kd from Prism fit of MFI).
Text: as §1

Binder | Kd [nM]
B1 | 40.5
B6 | 48.3
B2 | 42.5
B3 | 4.97
B5 | 3.25
B4 | 0.439
